This experiment concerns the target IL-5Rα expressed on cells (TF-1/IL-5Rα cells; human eosinophils) (human) (UniProt Q01344). The experiment in a line: cell-based or functional assay.

IL-5Rα expressed on cells (TF-1/IL-5Rα cells; human eosinophils) (human), sequence (Q01344 21-420): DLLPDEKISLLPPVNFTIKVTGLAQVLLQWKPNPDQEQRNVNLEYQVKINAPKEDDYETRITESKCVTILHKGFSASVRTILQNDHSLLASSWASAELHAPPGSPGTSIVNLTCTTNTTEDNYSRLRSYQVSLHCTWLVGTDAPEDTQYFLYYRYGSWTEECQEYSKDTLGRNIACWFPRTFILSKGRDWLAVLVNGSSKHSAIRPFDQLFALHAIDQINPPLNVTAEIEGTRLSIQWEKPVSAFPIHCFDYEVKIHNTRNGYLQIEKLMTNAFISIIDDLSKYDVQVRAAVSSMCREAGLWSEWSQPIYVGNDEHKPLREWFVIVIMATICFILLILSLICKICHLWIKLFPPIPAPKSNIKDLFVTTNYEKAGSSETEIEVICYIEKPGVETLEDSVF

For benralizumab analogue (antibody), the absolute IC50 (Abs IC50), inhibition of IL-5-dependent proliferation of TF-1/IL-5Rα cells is 1.99 nM.

These data come from patent publication US20230357415A1.
